Test results: patent US20220380463A1 (Adimab, published 2022)

Key:
[1] = biological target: T1, human CD3 on CD3+ Jurkat cells (human, UniProt P07766 23-207); experiment: flow cytometry, 100 nM IgG on CD3+ Jurkat cells, pH 6.0
T1 construct: whole, on cells; Native CD3 complex on cells; the other CD3 chains are not specified for this assay; also called Human CD3+ Jurkat
Experimental: (§1) Specificity of the anti-CD3 antibodies for human CD3+ Jurkat cells compared to CHO-S cells at pH 6.0 and 7.4 was determined using a FACS cell binding assay. Briefly, CD3+ human Jurkat cells and CHO-S cells were thawed and washed with cold PBSF buffer, pH 7.4 (PBS+0.1% BSA, pH 7.4). About 200,000 cells were aliquoted per well of a 96-well plate and pelleted by centrifugation (5 minutes at 500×g). The cells were washed with either PBSF pH 7.4 or PBSF pH 6.0 (PBS+0.1% BSA, pH 6.0), and then resuspended in 100 ul in either PBSF pH 7.4 or PBSF pH 6.0 with IgG antibody produced in yeast (100 nM). The mixture (cells+antibody) was incubated for 20 minutes on ice, then washed twice with either PBSF pH 7.4 or PBSF pH 6.0. Cells were resuspended in 50 ul of propidium iodide (1:500 dilution) and anti-human IgG-RPE (1:100 dilution) prepared in either PBSF pH 7.4 or PBSF pH 6.0, then incubated for 20 minutes on ice in the dark before cells were washed twice with either PBSF pH 7.4 or PBSF pH 6.0. Binding was analyzed on FACS Canto II.
(§2) Cell binding assays. CD3+ human Jurkat cells (ATCC) and CHO-S cells (Invitrogen/ThermoFisher) were thawed and washed with cold PBSF buffer, pH 7.4 (PBS+0.1% BSA, pH 7.4). About 200,000 cells were aliquoted per well of a 96-well plate (FACS Assay Plate VWR BD 353263) and pelleted by centrifugation (5 minutes at 500×g). The cells were washed with either PBSF pH 7.4 or PBSF pH 6.0 (PBS+0.1% BSA, pH 6.0), and then resuspended in 100 ul in either PBSF pH 7.4 or PBSF pH 6.0 with IgG antibody (100 nM) produced in yeast as described above. The mixture (cells+antibody) was incubated for 20 minutes on ice, then washed twice with either PBSF pH 7.4 or PBSF pH 6.0. Cells were resuspended in 50 ul of propidium iodide (Roche; 1:500 dilution) and anti-human IgG-RPE (Southern Biotech; 1:100 dilution) prepared in either PBSF pH 7.4 or PBSF pH 6.0, then incubated for 20 minutes on ice in the dark before cells were washed twice with either PBSF pH 7.4 or PBSF pH 6.0. Binding was analyzed on FACS Canto II.

[2] = biological target: T1, human CD3 on CD3+ Jurkat cells; experiment: flow cytometry on CD3+ Jurkat cells, ratio of MFI at pH 6.0 to pH 7.4
Experimental: as §1, §2

[3] = biological target: T1, human CD3 on CD3+ Jurkat cells; experiment: flow cytometry, 100 nM IgG on CD3+ Jurkat cells, pH 7.4
Experimental: as §1, §2

T1 sequence (P07766 23-207): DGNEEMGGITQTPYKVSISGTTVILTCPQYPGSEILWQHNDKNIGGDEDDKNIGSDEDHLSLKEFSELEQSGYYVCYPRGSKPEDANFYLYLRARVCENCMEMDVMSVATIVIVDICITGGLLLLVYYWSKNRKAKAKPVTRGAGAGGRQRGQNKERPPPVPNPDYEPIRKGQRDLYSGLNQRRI

| MFI pH 6.0 [1] [MFI] | MFI pH 6.0/MFI pH 7.4 [2] | MFI pH 7.4 [3] [MFI] | Binder |
| --- | --- | --- | --- |
| 3550 | 23.7 | 150 | SAD10318_P01_B01 (ADI-48574) (antibody, V domains shown, IgG; also called Ab2) VH: QVQLVQSGAEVKKPGASVKVSCKASGFNIKDYYMHWVRQAPGQRLEWMGWIDLENANTIYDAKFQGRVTITRDTSASTAYMELSSLRSEDTAVYYCARDAYGRYHYDHWGQGTLVTVSS VL: DIVMTQSPDSLAVSLGERATINCKSSQSLLNAHTGHNYLAWYQQKPGQPPKLLIYWASTRESGVPDRFSGSGSGTDFTLTISSLQAEDVAVYYCKQSYSRRTFGGGTKVEIK |
| 933 | 22.5 | 41 | SAD10318_P01_H01 (ADI-48580) (antibody, V domains shown, IgG; also called Ab226) VH: QVQLVQSGAEVKKPGASVKVSCKASGFNIKDYYMHWVRQAPGQRLEWMGWIDLENANTIYDAKFQGRVTITRDTSASTAYMELSSLRSEDTAVYYCARDAHHRYFYDVWGQGTLVTVSS VL: DIVMTQSPDSLAVSLGERATINCKSSQSLLNAHTGKNHLAWYQQKPGQPPKLLIYWASTRESGVPDRFSGSGSGTDFTLTISSLQAEDVAVYYCKQSYHHRTFGGGTKVEIK |
| 326 | 9 | 36 | SAD10318_P01_B02 (ADI-48582) (antibody, V domains shown, IgG; also called Ab248) VH: QVQLVQSGAEVKKPGASVKVSCKASGFNIKDYYMHWVRQAPGQRLEWMGWIDLENANTIYDAKFQGRVTITRDTSASTAYMELSSLRSEDTAVYYCARDHYHRYFYDVWGQGTLVTVSS VL: DIVMTQSPDSLAVSLGERATINCKSSQSLLNARTGHNHLAWYQQKPGQPPKLLIYWASTRESGVPDRFSGSGSGTDFTLTISSLQAEDVAVYYCKQSHSHRTFGGGTKVEIK |
| 3110 | 38.4 | 81 | SAD10318_P01_C01 (ADI-48575) (antibody, V domains shown, IgG; also called Ab113) VH: QVQLVQSGAEVKKPGASVKVSCKASGFNIKDYYMHWVRQAPGQRLEWMGWIDLENANTIYDAKFQGRVTITRDTSASTAYMELSSLRSEDTAVYYCARDAYHRYHYDVWGQGTLVTVSS VL: DIVMTQSPDSLAVSLGERATINCKSSQSLLNAHTHKNYLAWYQQKPGQPPKLLIYWASTRESGVPDRFSGSGSGTDFTLTISSLQAEDVAVYYCKQSHSHRTFGGGTKVEIK |
| 381 | 8.5 | 45 | SAD10318_P01_F02 (ADI-48585) (antibody, V domains shown, IgG; also called Ab14) VH: QVQLVQSGAEVKKPGASVKVSCKASGFNIKDYYMHWVRQAPGQRLEWMGWIDLENANTIYDAKFQGRVTITRDTSASTAYMELSSLRSEDTAVYYCARDAHGHYFYDVWGQGTLVTVSS VL: DIVMTQSPDSLAVSLGERATINCKSSQSLLNAHTGKNHLAWYQQKPGQPPKLLIYWASTRESGVPDRFSGSGSGTDFTLTISSLQAEDVAVYYCKQSHSHRTFGGGTKVEIK |
| 849 | 20.1 | 42 | SAD10318_P01_D01 (ADI-48576) (antibody, V domains shown, IgG; also called Ab182) VH: QVQLVQSGAEVKKPGASVKVSCKASGFNIKDYYMHWVRQAPGQRLEWMGWIDLENANTIYDAKFQGRVTITRDTSASTAYMELSSLRSEDTAVYYCARDAYHRYFYDHWGQGTLVTVSS VL: DIVMTQSPDSLAVSLGERATINCKSSQSLLNAHTGKNHLAWYQQKPGQPPKLLIYWASTRESGVPDRFSGSGSGTDFTLTISSLQAEDVAVYYCKQSHSHRTFGGGTKVEIK |
| 1090 | 24.3 | 45 | SAD10318_P01_G02 (ADI-48586) (antibody, V domains shown, IgG; also called Ab25) VH: QVQLVQSGAEVKKPGASVKVSCKASGFNIKDYYMHWVRQAPGQRLEWMGWIDLENANTIYDAKFQGRVTITRDTSASTAYMELSSLRSEDTAVYYCARDAYHHYFYDVWGQGTLVTVSS VL: DIVMTQSPDSLAVSLGERATINCKSSQSLLNARTGKNHLAWYQQKPGQPPKLLIYWASTRESGVPDRFSGSGSGTDFTLTISSLQAEDVAVYYCKQSYSHRTFGGGTKVEIK |
| 418 | 11.7 | 36 | SAD10318_P01_F01 (ADI-48578) (antibody, V domains shown, IgG; also called Ab204) VH: QVQLVQSGAEVKKPGASVKVSCKASGFNIKDYYMHWVRQAPGQRLEWMGWIDLENANTIYDAKFQGRVTITRDTSASTAYMELSSLRSEDTAVYYCARDAYGHYFYDHWGQGTLVTVSS VL: DIVMTQSPDSLAVSLGERATINCKSSQSLLNAHTGKNHLAWYQQKPGQPPKLLIYWASTRESGVPDRFSGSGSGTDFTLTISSLQAEDVAVYYCKQSYHHRTFGGGTKVEIK |
| 5240 | 11 | 475 | SAD10318_P01_F03 (ADI-48589) (antibody, V domains shown, IgG; also called Ab80) VH: QVQLVQSGAEVKKPGASVKVSCKASGFNIKDYYMHWVRQAPGQRLEWMGWIDLENANTIYDAKFQGRVTITRDTSASTAYMELSSLRSEDTAVYYCARDAHGRYFYDHWGQGTLVTVSS VL: DIVMTQSPDSLAVSLGERATINCKSSQSLLNAHTGHNYLAWYQQKPGQPPKLLIYWASTRESGVPDRFSGSGSGTDFTLTISSLQAEDVAVYYCKQSYSHRTFGGGTKVEIK |
| 2070 | 6.8 | 306 | SAD10318_P01_G01 (ADI-48579) (antibody, V domains shown, IgG; also called Ab215) VH: QVQLVQSGAEVKKPGASVKVSCKASGFNIKDYYMHWVRQAPGQRLEWMGWIDLENANTIYDAKFQGRVTITRDTSASTAYMELSSLRSEDTAVYYCARDAHGHYFYDVWGQGTLVTVSS VL: DIVMTQSPDSLAVSLGERATINCKSSQSLLHAHTGKNYLAWYQQKPGQPPKLLIYWASTRESGVPDRFSGSGSGTDFTLTISSLQAEDVAVYYCKQSHSHRTFGGGTKVEIK |
| 2180 | 23.9 | 91 | SAD10318_P01_D02 (ADI-48584) (antibody, V domains shown, IgG; also called Ab3) VH: QVQLVQSGAEVKKPGASVKVSCKASGFNIKDYYMHWVRQAPGQRLEWMGWIDLENANTIYDAKFQGRVTITRDTSASTAYMELSSLRSEDTAVYYCARDAHHRYFYDVWGQGTLVTVSS VL: DIVMTQSPDSLAVSLGERATINCKSSQSLLNARTGKNHLAWYQQKPGQPPKLLIYWASTRESGVPDRFSGSGSGTDFTLTISSLQAEDVAVYYCKQSHSHRTFGGGTKVEIK |
| 1950 | 60.3 | 32 | SAD10318_P01_G03 (ADI-48590) (antibody, V domains shown, IgG; also called Ab91) VH: QVQLVQSGAEVKKPGASVKVSCKASGFNIKDYYMHWVRQAPGQRLEWMGWIDLENANTIYDAKFQGRVTITRDTSASTAYMELSSLRSEDTAVYYCAHDAYGHYFYDVWGQGTLVTVSS VL: DIVMTQSPDSLAVSLGERATINCKSSQSLLNAHTGHNYLAWYQQKPGQPPKLLIYWASTRESGVPDRFSGSGSGTDFTLTISSLQAEDVAVYYCKQSYHHRTFGGGTKVEIK |
| 5370 | 73.1 | 73 | SAD10318_P01_E01 (ADI-48577) (antibody, V domains shown, IgG; also called Ab193) VH: QVQLVQSGAEVKKPGASVKVSCKASGFNIKDYYMHWVRQAPGQRLEWMGWIDLENANTIYDAKFQGRVTITRDTSASTAYMELSSLRSEDTAVYYCARDAHHRYFYDVWGQGTLVTVSS VL: DIVMTQSPDSLAVSLGERATINCKSSQSLLNAHEGKNYLAWYQQKPGQPPKLLIYWASTRESGVPDRFSGSGSGTDFTLTISSLQAEDVAVYYCKQSHSHRTFGGGTKVEIK |
| 4940 | 83.3 | 59 | SAD10318_P01_D03 (ADI-48588) (antibody, V domains shown, IgG; also called Ab58) VH: QVQLVQSGAEVKKPGASVKVSCKASGFNIKDYYMHWVRQAPGQRLEWMGWIDLENANTIYDAKFQGRVTITRDTSASTAYMELSSLRSEDTAVYYCARDHYGHYFYDVWGQGTLVTVSS VL: DIVMTQSPDSLAVSLGERATINCKSSQSLLNAHTGHNYLAWYQQKPGQPPKLLIYWASTRESGVPDRFSGSGSGTDFTLTISSLQAEDVAVYYCKQSHSHRTFGGGTKVEIK |
